Experimental data reported in publication PMC12583524.

B1: C37 Fab (papain digestion of the mAb) (Fab, V domains shown)
VH: QVQLQESGPGLVKPSETLSLTCTVSGGSIGSSSYYWGWIRQPPGKGLQWIGSFHYSGTTYYNPSLKSRVTISVDTSKNHFSLKLSSVTAADTAVYYCASRQNWNDGYFDYWGQGTLVTVSS
VL: DIQMTQSPATLSLSPGERATLFCRASQSVSSSLAWYQQKPGQAPRLLIYDASNRATGIPARFSGSGSGTDFTLTISSLEPEDFAVYYCQQRGNWPPITFGQGTRLDTK
B2: C34 IgG (antibody, V domains shown)
VH: EVQLVESGGGLVQPGRSLRLSCAASGFTFDDYAMHWVRQAPGKGLEWVSGISWNSGSIGYADSVKGRFTISRDNAKNSLYLQMNSLRAEDTALYYCAKDMGYSGNDDYYGMDVWGQGTTVTVSS
VL: DIQLTQSPSSLSASVGDRVTITCRASQRISSYLNWYQQKPGKAPKLLIYGAFSLQSGVPSRFSGSGSGTDFTLTISSLQPEDFATYYCQQSYRTLTRTFGQGTKVEIK
B3: C37 IgG (antibody, V domains shown)
VH: B1 VH
VL: B1 VL
B4: C34 Fab (papain digestion of the mAb) (Fab, V domains shown)
VH: B2 VH
VL: B2 VL

Each binder was assayed against infectious CHIKV virion particle with E3 associated (strain CHIKV-181/25) (Chikungunya virus) (UniProt Q8JUX5).
Sequence of infectious CHIKV virion particle with E3 associated (strain CHIKV-181/25) (Chikungunya virus) (Q8JUX5 whole entry, looked up): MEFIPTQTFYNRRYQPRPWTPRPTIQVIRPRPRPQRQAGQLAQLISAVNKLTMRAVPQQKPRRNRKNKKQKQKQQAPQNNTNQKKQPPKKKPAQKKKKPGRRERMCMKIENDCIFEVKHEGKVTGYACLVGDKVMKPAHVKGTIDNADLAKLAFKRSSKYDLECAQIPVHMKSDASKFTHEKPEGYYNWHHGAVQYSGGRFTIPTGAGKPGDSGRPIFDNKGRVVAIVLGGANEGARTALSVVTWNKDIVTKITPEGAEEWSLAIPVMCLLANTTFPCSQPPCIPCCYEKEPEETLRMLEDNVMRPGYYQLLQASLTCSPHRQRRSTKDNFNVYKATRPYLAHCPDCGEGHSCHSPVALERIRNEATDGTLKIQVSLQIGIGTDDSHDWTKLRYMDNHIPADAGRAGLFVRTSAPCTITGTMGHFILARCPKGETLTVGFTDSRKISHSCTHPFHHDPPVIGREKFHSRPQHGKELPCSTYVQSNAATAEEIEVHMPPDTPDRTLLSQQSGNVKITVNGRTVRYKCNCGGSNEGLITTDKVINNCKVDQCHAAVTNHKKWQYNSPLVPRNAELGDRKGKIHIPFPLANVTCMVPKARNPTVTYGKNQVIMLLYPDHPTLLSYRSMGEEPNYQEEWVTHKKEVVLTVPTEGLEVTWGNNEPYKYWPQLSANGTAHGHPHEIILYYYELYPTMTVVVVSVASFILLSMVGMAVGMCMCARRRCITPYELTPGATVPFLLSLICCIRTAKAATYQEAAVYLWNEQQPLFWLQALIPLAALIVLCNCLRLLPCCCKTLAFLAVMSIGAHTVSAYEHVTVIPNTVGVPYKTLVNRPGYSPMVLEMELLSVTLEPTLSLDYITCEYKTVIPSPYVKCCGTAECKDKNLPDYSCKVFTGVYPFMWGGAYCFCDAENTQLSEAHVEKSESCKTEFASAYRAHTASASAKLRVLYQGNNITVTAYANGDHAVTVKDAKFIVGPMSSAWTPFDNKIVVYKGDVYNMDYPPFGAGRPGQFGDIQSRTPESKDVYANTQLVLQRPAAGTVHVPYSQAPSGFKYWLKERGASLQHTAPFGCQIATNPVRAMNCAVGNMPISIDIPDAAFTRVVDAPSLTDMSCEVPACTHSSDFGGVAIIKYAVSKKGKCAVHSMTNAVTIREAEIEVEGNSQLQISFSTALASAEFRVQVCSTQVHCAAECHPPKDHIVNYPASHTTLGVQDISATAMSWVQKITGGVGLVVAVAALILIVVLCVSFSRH

B1 was tested. Which PRNT50, post-attachment neutralisation assay on Vero cells did it give?
The PRNT50, post-attachment neutralisation assay on Vero cells was 727 ng/mL.

With B2 as the binder, how does the PRNT50, post-attachment neutralisation assay on Vero cells read?
Its PRNT50, post-attachment neutralisation assay on Vero cells is 48.7 ng/mL.

With B3 as the binder, how does the PRNT50, post-attachment neutralisation assay on Vero cells read?
The PRNT50, post-attachment neutralisation assay on Vero cells was 164 ng/mL.

B4 was tested. Which PRNT50, post-attachment neutralisation assay on Vero cells did it give?
Its PRNT50, post-attachment neutralisation assay on Vero cells is 97 ng/mL.
